Measurements taken from PMC3553970.

Substrate: N[C@@H](Cc1ccc(O)cc1)C(=O)O
Assay: purified protein
Conditions: amino acid activation, ATP, no tRNA, 37°C, near-cognate amino acid

B1: M. mobile PheRS (MmPheRS) (Mycoplasma mobile 163K) (protein)
chain: MKKNLTNLRIETLEDLKIAKSNFLNNDLELKQLMNDLKLASKEQKASIGQKINFYKQEIEQFFLTKKEEIEKKEVLKKIQDEFIDVFEEVNFSSSLHPLTLIENRFRTWFLNNGYYETEGSEITTDKINFELLNIPKDHPSRDMQDSLYLEKEQNGDQLLLRTHNTGFSIIELIKNKNKAFSAFSIGKVYRNDEDDNTHSHQFSQVDVIVAGKYNFPNLMWLLKSLLSYVFEEEVKIRLRPSYFPFTEPSCEVDVFYKNKWIEVLGSGIIHENVMKAAGYTNDMNALAWGIGIERIAMIKYGIDNIREFYKNDIRFLKQFNLEIEKLEV
Km: 3.9 ± 0.54 mM | kcat: 8 s⁻¹ | kcat/Km: 2100 M⁻¹ s⁻¹
